According to US20250270289A1, “SEQUENCE-DEFINED POLYMERS WITH ONE OR MORE AZIDES, METHODS OF MAKING, AND METHODS OF USE THEREOF” (Yale University, priority 2021, published 2025):

Assays:
[1] = target: GST-Src SH2 [GST: P08515]; experiment: fluorescence polarization competition; competitor FITC-pTyrEEI on GST-Src SH2
[2] = target: GST-Src SH2 [GST: P08515]; experiment: fluorescence polarization, GST-Src SH2 titrated on 10 nM FITC-pTyrEEI, one-site binding model
[3] = target: GST-Src SH2 [GST: P08515]; experiment: fluorescence polarization competition, EC50 of pnY peptide against that of pTyr peptide

GST-Src SH2 [GST: P08515], sequence (P08515 whole entry): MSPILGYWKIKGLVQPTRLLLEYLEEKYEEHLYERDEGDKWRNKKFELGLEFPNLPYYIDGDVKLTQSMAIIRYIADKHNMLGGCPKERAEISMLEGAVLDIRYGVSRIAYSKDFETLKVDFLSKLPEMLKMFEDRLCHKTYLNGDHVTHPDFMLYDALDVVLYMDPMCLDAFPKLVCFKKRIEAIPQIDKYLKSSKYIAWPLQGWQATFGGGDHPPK

Substance: pTyrEEI (peptide)
- EC50 [1]: 740 nM

Substance: FITC-pTyrEEI (peptide)
- Kd [2]: 280 nM

Substance: pnYEEI (peptide)
- EC50 [1]: 12800 nM
- Decrease in binding affinity with SH2 (against pTyr) [3]: 17 fold
